The values below come from paper PMC12608037.

Some results are limits rather than exact numbers.

The test system of series [1] is YihW (CsqR) K-12 MG1655 (Escherichia coli K-12 MG1655). Nature of the series: EMSA. Particulars: 50 mM Tris-Cl (pH not stated), 100 mM KCl, 50% glycerol, 1 mM EDTA (1x); 0.5 pmol DNA, 2-24 pmol YihW; 30 or 37 C, 30 min; 5% PAGE in 1x TBE; scale: protein:DNA molar ratio for complete binding.
In series [2] the test system is YihW (CsqR) Nissle 1917 (Escherichia coli Nissle 1917). The experiment in a line: EMSA. The conditions noted are these: 50 mM Tris-Cl (pH not stated), 100 mM KCl, 50% glycerol, 1 mM EDTA (1x), 0.5 pmol DNA, 2-24 pmol YihW, 30 or 37 C, 30 min, 5% PAGE in 1x TBE, scale: protein:DNA molar ratio for complete binding. On the technique in general: A gel shift assay detects complexes by their altered migration in electrophoresis.

Turning to yihU/V intergenic region, K-12 MG1655, the binding signal was 16 in series [1] and 24 in series [2] (30 C, equal efficiency to Nissle fragment).
yihU/V intergenic region, Nissle 1917: the binding signal is 16 in series [1]; 24 in series [2] (30 C); over 48 in series [2] (37 C, some DNA free at 48x, weaker than K-12 fragment).
